Among the data in PMC3988567 are stoichiometry N values, retold here.

This experiment addresses ZnF-UBP domain from USP5 (human) (UniProt P45974). The experiment in a line: ITC.

ZnF-UBP domain from USP5 (human), sequence (P45974 163-291): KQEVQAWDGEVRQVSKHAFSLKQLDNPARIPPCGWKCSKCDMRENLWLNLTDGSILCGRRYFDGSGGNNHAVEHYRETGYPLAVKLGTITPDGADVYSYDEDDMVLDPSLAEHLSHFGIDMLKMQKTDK

Consider “ubiquitin (from UniProt P0CG48 1-76) (natural protein)”, for which the stoichiometry N came to 1.
